Consider one molecule from patent US20020197702A1.

* marks the point of attachment. AMC = Cc1cc(=O)oc2cc(N*)ccc12

In the test the target is membrane-derived caspases. Description: cell-based or functional assay.

B1: DEVD-amc (Acetyl-Asp-Glu-Val-Asp-aminomethylcoumarin) (peptide)
peptide: Ac-DEVD-{AMC}
Take B1: the Km for hydrolysis of DEVD-amc turned out to be 10 µM.
